Assay results as given in article PMC9457175.

Biological target: KARS1 (human), Q15046
Assay: RNA immunoprecipitation with qRT-PCR
Settings: remark: other sources report otherwise

Sequence of KARS1 (human), Q15046 (Q15046 whole entry): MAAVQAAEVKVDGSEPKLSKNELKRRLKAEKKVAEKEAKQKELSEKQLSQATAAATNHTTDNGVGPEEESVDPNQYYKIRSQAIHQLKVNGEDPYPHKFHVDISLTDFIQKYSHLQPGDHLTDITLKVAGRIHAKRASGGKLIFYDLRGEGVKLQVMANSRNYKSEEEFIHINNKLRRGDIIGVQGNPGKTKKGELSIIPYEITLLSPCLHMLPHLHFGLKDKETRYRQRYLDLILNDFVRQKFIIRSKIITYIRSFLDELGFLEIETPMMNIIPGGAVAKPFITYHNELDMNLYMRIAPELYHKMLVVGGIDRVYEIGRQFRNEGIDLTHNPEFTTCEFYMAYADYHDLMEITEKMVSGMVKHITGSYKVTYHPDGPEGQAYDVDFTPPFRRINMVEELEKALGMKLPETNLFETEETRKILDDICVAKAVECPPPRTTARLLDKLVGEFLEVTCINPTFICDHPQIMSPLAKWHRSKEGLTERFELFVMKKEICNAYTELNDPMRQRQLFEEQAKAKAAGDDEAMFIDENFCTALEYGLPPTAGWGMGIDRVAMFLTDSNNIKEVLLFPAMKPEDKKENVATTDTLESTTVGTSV

fold enrichment of mRNA (anti-FLAG RIP over IgG): 9.7 fold
B1: AIMP1, Q12904 (natural protein)
chain: MANNDAVLKRLEQKGAEADQIIEYLKQQVSLLKEKAILQATLREEKKLRVENAKLKKEIEELKQELIQAEIQNGVKQIPFPSGTPLHANSMVSENVIQSTAVTTVSSGTKEQIKGGTGDEKKAKEKIEKKGEKKEKKQQSIAGSADSKPIDVSRLDLRIGCIITARKHPDADSLYVEEVDVGEIAPRTVVSGLVNHVPLEQMQNRMVILLCNLKPAKMRGVLSQAMVMCASSPEKIEILAPPNGSVPGDRITFDAFPGEPDKELNPKKKIWEQIQPDLHTNDECVATYKGVPFEVKGKGVCRAQTMSNSGIK
